Numbering of substitutions follows the chain as printed.

The results in this text go back to US20040146873.

The test system of data set [1] is T1, hPER2 fragment, amino acids 474 to 815, S662D, 6-myc-tagged.
T1 sequence: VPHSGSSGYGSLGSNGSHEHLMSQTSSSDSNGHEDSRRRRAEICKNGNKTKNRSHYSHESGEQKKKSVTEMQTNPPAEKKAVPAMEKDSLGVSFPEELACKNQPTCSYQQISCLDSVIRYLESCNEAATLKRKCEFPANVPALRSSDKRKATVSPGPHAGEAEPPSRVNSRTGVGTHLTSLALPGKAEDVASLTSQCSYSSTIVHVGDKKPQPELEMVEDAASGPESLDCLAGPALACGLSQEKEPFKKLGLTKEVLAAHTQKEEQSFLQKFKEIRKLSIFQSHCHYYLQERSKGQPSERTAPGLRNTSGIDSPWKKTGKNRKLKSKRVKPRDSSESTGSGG

In data set [2] the test system is T2, hPER2 fragment, amino acids 474 to 815, S662E, 6-myc-tagged.
T2 sequence: T1 sequence with D189E

In data set [3] the test system is T3, hPER2 fragment, amino acids 474 to 815, mutant S662G (662G), 6-myc-tagged.
T3 sequence: T1 sequence with D189G

Data set [4] has as its system T4, hPER2 fragment, amino acids 474 to 815, wild-type (662S), 6-myc-tagged.
T4 sequence: T1 sequence with D189S

The subject of data set [5] is hPER2 peptides in the region of serine 662 with a negative charge at position 662 (covalently linked phosphate or aspartate).
Data set [6] concerns the target mPER2 fragment, amino acids 472 to 804, serine 659 substituted by glycine, 6-myc-tagged (UniProt O54943).
For data set [7], the target named is mPER2 fragment, amino acids 472 to 804, wild-type, 6-myc-tagged (UniProt O54943).

casein kinase Iε (CKIε), sequence (P49674 whole entry): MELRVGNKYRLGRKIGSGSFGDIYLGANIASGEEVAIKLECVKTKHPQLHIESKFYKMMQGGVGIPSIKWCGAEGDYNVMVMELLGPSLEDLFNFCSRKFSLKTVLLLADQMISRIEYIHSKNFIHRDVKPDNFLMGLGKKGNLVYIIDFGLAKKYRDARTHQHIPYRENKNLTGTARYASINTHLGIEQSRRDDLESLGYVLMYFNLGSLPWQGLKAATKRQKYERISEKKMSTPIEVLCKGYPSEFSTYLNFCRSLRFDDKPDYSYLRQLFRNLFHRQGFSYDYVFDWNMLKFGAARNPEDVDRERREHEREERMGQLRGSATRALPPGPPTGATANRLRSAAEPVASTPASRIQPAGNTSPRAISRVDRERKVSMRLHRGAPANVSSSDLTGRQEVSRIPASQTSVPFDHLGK

As to casein kinase Iε (CKIε), the “phosphorylation (mobility shift)” value in data set [1] is “Phosphorylation was restored in both the S662D and S662E mutants, with a higher phosphorylation rate observed with the S662D mutant”; in data set [2], “Phosphorylation was restored in both the S662D and S662E mutants, with a higher phosphorylation rate observed with the S662D mutant”. Besides, the “electrophoretic mobility shift (phosphorylation) at higher CKIε, 6.5 ng/µl” value is “mobility shifts were observed for both the wild type and mutant hPER2 fragments” in data set [3]; “mobility shifts were observed for both the wild type and mutant hPER2 fragments” in data set [4]. Moreover, the “electrophoretic mobility shift (phosphorylation) at low CKIε, 0.25 ng/µl” value in data set [3] and in data set [4] was “an electrophoretic mobility shift was observed with the wild-type (662S) but not with the mutant (662G) fragment” in each case. For the same substance, the “phosphorylation stoichiometry (biochemical phosphorylation assay and mass spectrometry)” value in data set [5] was “phosphorylation of an additional four moles per mole of substrate when there is a negative charge at serine 662”. Moreover, the “electrophoretic mobility shift (phosphorylation) at low CKIε” value in data set [6] is “A similar result was obtained with wild-type and mutant mPER2 fragments (data not shown)”; in data set [7], “A similar result was obtained with wild-type and mutant mPER2 fragments (data not shown)”.
